Test results: PMC3887193

Molecular target: HLA-DRα (human)
Conditions: scale: % of surface expression with wild type Ii

- cell surface expression of DRA.DPB1*0401 co-expressed with Ii M91G (flow cytometry, mAb 2.06): 60
Substance: Ii M91G mutant (natural protein)
